Test results from patent US20200231670A1 (AGENSYS, published 2020).

Key:
[1] = biological target: T1, Nectin-2 over-expressed by engineered Rat1(E) cells (UniProt Q92692 32-538, limits assumed); assay: IHC, FFPE Rat1(E) cells expressing Nectin-2
T1 construct: whole, on cells; also called Rat1(E)-Nectin-2; Rat1(E) Nectin2
T1 sequence (looked up): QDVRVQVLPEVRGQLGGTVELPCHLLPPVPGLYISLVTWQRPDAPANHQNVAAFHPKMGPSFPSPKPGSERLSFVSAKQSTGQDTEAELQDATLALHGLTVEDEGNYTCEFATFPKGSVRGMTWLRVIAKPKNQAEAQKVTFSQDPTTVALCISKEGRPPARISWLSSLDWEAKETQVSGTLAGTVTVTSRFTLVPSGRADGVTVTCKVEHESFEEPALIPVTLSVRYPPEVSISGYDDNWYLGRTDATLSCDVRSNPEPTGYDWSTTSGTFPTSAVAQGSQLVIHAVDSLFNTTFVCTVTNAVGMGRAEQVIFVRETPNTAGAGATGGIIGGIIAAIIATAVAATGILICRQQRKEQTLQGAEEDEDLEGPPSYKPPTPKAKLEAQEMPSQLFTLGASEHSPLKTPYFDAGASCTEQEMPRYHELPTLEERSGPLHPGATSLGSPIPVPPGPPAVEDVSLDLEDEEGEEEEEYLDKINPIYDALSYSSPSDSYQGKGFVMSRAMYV
Procedure: (§1) IHC staining was performed according to the following exemplary protocols. Briefly, an indirect IHC technique was used to detect Nectin-4 in the IHC assay. The samples were fixed in 10% buffered neutral formalin, processed and embedded into paraffin wax, and prepared as 4 μm tissue sections. After deparaffinization and re-hydration, sections were treated for antigen retrieval. The antigen epitopes in Nectin-4 were retrieved, for example, by application of heat to the tissue sections in an aqueous medium, commonly referred to as a Heat-Induced Epitope Retrieval (HIER) procedure. […] The tissue sections bound with primary antibodies were washed and detected with an enzyme-labeled, e.g. peroxidase-labeled, secondary antibody. […] The stained tissue sections were then scanned, imaged, and evaluated with light microscopy, for example, using an Aperio ScanScope CS (Aperio, Vista, Calif.).
(§2) To assess the level of Nectin-4 expression in the tissue sections by the level of antibody staining, stained tissue sections were assessed, evaluated, categorized, and recorded into different categories or scores according to the intensity of the IHC staining and cancer cell positivity ratio. […] Lack of specific staining was recorded as negative (“0” or interchangeably with as “−”).

human Nectin-4 = biological target: T2, human Nectin-4 (human, UniProt Q96NY8 32-510); assay: IHC score, FFPE xenograft AG-OV35, 2.5 µg/mL
T2 construct: As expressed in human tumour xenograft tissues, human cell lines (T47D, NCI H322M) and Rat1(E) cells engineered to overexpress Nectin-4; Tested as FFPE sections (IHC) or as reduced lysates (Western blot); also called PVRL4; poliovirus receptor-related protein 4
T2 sequence: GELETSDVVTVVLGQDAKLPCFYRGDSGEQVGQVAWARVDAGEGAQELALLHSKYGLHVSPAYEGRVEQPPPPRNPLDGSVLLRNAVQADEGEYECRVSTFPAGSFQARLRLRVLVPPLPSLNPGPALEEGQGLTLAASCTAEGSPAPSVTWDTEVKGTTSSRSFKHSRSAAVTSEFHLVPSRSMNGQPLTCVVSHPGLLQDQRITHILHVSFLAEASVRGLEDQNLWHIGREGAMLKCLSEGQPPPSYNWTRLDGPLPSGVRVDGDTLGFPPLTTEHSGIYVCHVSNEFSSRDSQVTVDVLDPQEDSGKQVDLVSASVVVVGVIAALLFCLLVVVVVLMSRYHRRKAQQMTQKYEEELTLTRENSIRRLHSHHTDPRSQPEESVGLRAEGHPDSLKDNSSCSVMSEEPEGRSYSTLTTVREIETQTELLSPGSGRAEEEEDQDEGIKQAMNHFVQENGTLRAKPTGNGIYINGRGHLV
Procedure: as §1, §2

[2] = biological target: T3, Nectin-1 over-expressed by engineered Rat1(E) cells (UniProt Q15223 31-517, limits assumed); assay: IHC, FFPE Rat1(E) cells expressing Nectin-1
T3 construct: whole, on cells; also called Rat1(E)-Nectin-1; Rat1(E) Nectin1
T3 sequence (looked up): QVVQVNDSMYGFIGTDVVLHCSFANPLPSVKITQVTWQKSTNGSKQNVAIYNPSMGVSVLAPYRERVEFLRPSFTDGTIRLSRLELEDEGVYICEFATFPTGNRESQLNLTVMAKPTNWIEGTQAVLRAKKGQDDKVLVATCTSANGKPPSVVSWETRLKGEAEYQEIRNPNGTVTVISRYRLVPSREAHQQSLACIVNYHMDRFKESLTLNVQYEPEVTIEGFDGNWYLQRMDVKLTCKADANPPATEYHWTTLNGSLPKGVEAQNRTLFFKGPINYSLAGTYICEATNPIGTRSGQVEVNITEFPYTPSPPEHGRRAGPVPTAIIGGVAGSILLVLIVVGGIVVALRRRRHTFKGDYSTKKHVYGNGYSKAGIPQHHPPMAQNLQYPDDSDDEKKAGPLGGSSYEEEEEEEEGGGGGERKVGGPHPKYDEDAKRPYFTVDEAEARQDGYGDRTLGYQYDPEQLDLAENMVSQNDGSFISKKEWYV

[3] = biological target: T4, Nectin-4 fragment V (amino acid residues 1-150 of human Nectin-4) (human, UniProt Q96NY8 32-150); assay: Western blot of cell lysates (FIG. 13)
T4 construct: Expressed in transfected cells and tested as a reduced RIPA lysate on a Western blot; Any tag or membrane anchor of the construct is not described; also called V fragment/domain
T4 sequence: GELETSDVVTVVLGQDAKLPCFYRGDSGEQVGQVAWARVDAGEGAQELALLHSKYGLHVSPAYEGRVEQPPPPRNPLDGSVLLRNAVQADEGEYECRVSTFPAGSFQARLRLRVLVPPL
Procedure: The cells expressing various Nectin-4 fragments were cultured and lysed in RIPA buffer. […] A 1:10000 dilution of a-GAPDH antibody (Chicken pAb, Millipore) was used detect GAPDH as a loading control. Antibodies bound to the protein bands were then detected with either 1:5000 dilution of Goat-anti-Mouse antibody conjugated with IRDye 680 (Odyssey) or 1:5000 Donkey anti-a-Chicken conjugated with IRDye 800 (Odyssey) and visualized in Odyssey system.

[4] = biological target: T5, recombinant extracellular domain of human Nectin-4 protein (fragment aa 31-346) (human, UniProt Q96NY8 31-346); assay: ELISA
T5 construct: Made in E. coli with a 6xHN tag from a pET vector; The primary screen used aa 31-346; The secondary screen also used a 293FT-made fragment, printed as aa 1-346 in one place and aa 1-348 in another, with a myc-his tag; also called 6xHN-tagged Nectin 4 (aa 31-346); Nectin-4 extracellular domain fragment (amino acid residues 31-346)
T5 sequence: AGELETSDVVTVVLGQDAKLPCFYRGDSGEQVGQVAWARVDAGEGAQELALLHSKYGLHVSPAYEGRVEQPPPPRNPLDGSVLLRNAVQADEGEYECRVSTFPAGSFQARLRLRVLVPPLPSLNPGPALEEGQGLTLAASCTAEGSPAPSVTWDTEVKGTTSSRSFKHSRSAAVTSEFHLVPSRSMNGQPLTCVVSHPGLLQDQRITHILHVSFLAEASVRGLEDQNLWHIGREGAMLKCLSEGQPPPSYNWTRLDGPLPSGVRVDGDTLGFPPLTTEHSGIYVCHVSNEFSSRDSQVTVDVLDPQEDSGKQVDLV

B1: M22-321b41.1 anti-Nectin-4 mouse monoclonal antibody (antibody, mouse IgG2a, kappa, V domains shown)
VH: QVQLQQSGAELARPGASVKLSCKASGYTFTTYWMQWVKQRPGQGLEWIGSIYPGDGDTRYTQKFKGKATLTADKSSSTAYIQLSTLASEDSAVYYCAREYYGLDYWGQGTTLTVSS
VL: DIVMTQAAFSNPVTLGTSASISCRSSKSLLHSNGITYLYWYLQKPGQSPQLLIYHMSNLASGVPDRFTSSGSGTDFTLRISRVEAEDVGVYYCAQNLELPFTFGGGTKLETKR
notes: Mouse IgG2a kappa from hybridoma M22-321b41.1 (ATCC PTA-124245), protein A purified; also called mAb M22-321b41.1; M22-321b1.1
B1: no binding (tested: 2.5 µg/mL) [1]; binds (human Nectin-4); no binding (tested: 2.5 µg/mL) [2]. B1: binds [3]; binds [4].
